Experimental data: patent US20210317419

Biological target: T1, D-proline reductase PrdA protein derived from Peptoclostridium difficile 630, with 6X histidine tags at both termini (H6-prdA-H6)
T1 chain: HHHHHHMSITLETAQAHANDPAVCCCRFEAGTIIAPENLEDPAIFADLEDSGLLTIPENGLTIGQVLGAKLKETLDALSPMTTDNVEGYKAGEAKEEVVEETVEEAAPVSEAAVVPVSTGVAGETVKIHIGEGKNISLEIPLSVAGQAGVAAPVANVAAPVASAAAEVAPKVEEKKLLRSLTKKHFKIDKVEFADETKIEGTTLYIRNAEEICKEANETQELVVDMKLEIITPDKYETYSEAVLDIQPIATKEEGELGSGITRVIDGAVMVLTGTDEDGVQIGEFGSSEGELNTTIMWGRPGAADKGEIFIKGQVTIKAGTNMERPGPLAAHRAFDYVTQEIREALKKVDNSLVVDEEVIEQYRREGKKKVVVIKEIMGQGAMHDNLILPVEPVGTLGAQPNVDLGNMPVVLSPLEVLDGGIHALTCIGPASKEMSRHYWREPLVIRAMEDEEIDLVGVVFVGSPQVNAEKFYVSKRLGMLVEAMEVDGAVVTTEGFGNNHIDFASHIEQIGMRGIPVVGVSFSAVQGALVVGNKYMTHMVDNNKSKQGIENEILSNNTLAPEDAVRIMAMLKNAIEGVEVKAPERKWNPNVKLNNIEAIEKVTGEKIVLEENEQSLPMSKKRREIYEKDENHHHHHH

B1: D-proline reductase PrdB protein derived from Peptoclostridium difficile 630, with a 6X histidine tag at the carboxyl terminus (prdB-H6) (protein)
chain: MSLTTVQGLQSEIFVPITPPPVWTPVTKELKDMTIALATAAGVHLKSDKRFNLAGDTTFRAIPNTATVDEMMVSHGGYDNGDVNKDINCMFPIDRLHELAAEGFIKGVAPMHYAFMGGGGNQHVFTEETGPAIAAKLKEEGVDGVVMTAGGTCHRTAVIVQRAIEEAGIPTIIIAALPPVVRQNGTPRAVAPLVPMGANAGEPHNIEMQTHILRDTLEQLVAIPSAGKIVPLPYEYKAHVHHHHHH
self-cleavage of PrdA protein (Western blot of lysates of co-expressing E. coli): PrdH protein and PrdB protein must exist at the same time to induce self-cleavage of PrdA protein
